Assay [1] concerns the target T1, native FN 120 kD (B+) thermolysin fragment (human, UniProt P02751 722-1721, limits assumed).
T1 construct: domain: thermolysin treated FN domain 4, containing ED-B; also called 120 kD protein; 120 kD domain
Nature of the assay: ELISA on coated antigen, background subtracted. As for the experimental part: (§1) All antigens used in ELISA were diluted in PBS to between 50-100 μg/ml and coated at 4° C. overnight onto Immuno-Plate wells (Nunc, Roskilde, Denmark). Unbound antigen was removed with PBS and plates were then blocked with PBS containing 3% (w/v) bovine serum albumin (BSA) for 2 h at 37° C. This was followed by four washes with PBS containing 0.05% Tween 20 (PBST). Antibodies were then allowed to bind at 37° C. for 1.5 h; scFvs were preincubated with an antiserum directed against the tag sequence: mAb M2 [Kodak, New Haven Conn.] for the FLAG tag or 9E10 [ATCC, Rockville, Md.] for the myc tag. Control antibodies tested were mAbs BC-1 and IST-6. After four washes with PBST, the plates were incubated for 1 h at 37° C. with 1:2000 diluted (in PBST+3% BSA) biotinylated goat anti-mouse IgG (Bio-SPA Division, Milan, Italy). The washes were repeated and Streptavidin-biotinylated alkaline phosphatase complex (Bio-SPA Division, Milan, Italy) was added (1:800 diluted in PBST containing 2 mM MgCl2) for 1 h at 37° C. The reaction was developed using Phosphatase substrate tablets (Sigma) in 10% diethanolamine, pH 9.8 and the optical density was read at 405 nm.

In assay [2] the target is T2, recombinant FN fragment 789 (human, UniProt P02751-1 1173-1446, limits assumed).
T2 construct: domain: type III homology repeats 789; the text treats it as lacking ED-B; also called rec FN789
T2 sequence (P02751 other isoform, or with tags, fused parts or gaps limits assumed): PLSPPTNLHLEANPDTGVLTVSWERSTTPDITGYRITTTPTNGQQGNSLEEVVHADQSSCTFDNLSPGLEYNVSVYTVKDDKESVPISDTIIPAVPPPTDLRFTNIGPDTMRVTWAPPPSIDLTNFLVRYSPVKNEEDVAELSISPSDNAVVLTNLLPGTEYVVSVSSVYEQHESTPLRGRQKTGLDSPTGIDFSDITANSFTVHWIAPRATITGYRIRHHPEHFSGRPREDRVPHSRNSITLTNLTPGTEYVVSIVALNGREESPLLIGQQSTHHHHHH
Briefly: ELISA on coated antigen, background subtracted. As for the experimental part:
as §1

The target of assay [3] is T3, native FN 110 kD (B-) thermolysin fragment (human, UniProt P02751-1 722-1630, limits assumed).
T3 construct: domain: thermolysin treated FN domain 4, without ED-B; also called 110 kD protein
T3 sequence (P02751 other isoform, or with tags, fused parts or gaps limits assumed): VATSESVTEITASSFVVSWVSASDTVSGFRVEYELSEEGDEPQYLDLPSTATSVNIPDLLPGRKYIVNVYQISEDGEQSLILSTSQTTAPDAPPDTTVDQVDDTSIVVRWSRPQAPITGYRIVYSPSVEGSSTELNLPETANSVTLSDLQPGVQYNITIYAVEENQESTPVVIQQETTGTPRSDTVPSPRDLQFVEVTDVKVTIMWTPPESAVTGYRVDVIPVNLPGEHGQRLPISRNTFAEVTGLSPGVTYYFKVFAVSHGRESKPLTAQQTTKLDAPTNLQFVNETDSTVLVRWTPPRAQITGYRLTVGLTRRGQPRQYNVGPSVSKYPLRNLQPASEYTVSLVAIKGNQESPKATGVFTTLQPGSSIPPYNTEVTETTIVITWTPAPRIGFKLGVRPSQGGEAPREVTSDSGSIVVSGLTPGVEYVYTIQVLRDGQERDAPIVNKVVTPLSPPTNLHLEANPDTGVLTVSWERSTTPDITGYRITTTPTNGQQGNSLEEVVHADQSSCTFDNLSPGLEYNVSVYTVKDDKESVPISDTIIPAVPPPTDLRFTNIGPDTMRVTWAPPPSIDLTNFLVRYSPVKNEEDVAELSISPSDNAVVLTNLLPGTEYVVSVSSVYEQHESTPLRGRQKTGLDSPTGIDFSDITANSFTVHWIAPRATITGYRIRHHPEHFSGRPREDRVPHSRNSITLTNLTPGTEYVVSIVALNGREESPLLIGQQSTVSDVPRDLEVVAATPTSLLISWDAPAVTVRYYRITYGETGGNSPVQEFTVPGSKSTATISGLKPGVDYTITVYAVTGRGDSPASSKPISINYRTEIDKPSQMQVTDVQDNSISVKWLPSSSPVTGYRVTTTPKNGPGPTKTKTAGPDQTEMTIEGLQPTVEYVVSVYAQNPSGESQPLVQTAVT
Briefly: ELISA on coated antigen, background subtracted. As for the experimental part: as §1
(In general: In an ELISA, binding on a coated surface is turned into a signal by an enzyme label.)

For assay [4], the target named is T4, recombinant FN domain 6 (human, UniProt P02751 1086-1172, limits assumed).
T4 construct: domain: FN-6; also called rec FN-6; rec FN6
T4 sequence (P02751 other isoform, or with tags, fused parts or gaps limits assumed): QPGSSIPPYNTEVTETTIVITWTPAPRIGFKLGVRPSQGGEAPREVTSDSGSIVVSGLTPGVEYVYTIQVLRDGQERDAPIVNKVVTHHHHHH
Briefly: ELISA on coated antigen, background subtracted. As for the experimental part: as §1

Assay [5] addresses T5, recombinant FN fragment 7B89 (human, UniProt P02751 1173-1537, limits assumed, biotinylated for BIAcore (sites not given)).
T5 construct: domain: type III homology repeats 7B89; also called rec FN7B89; 78B9 [sic]
Briefly: ELISA on coated antigen, background subtracted. On the procedure: as §1

Assay [6] concerns the target T6, recombinant ED-B domain of human fibronectin with a carboxy terminal hexahistidine tag (human, UniProt P02751 1266-1356).
T6 construct: domain: ED-B; In BIAcore chemically immobilised at the N-terminal amino group; also called rec ED-B; recombinant ED-B peptide
Nature of the assay: ELISA on coated antigen, background subtracted. On the procedure:
as §1

Assay [7] addresses T7, fibronectin purified from the conditioned medium of the SV40-transformed cell line WI38VA13 (human, UniProt P02751 32-2477).
T7 construct: mature; Mixture of isoforms, most of them B+; also called FN WI38VA; WI38VA FN
Nature of the assay: ELISA on coated antigen, background subtracted. As for the experimental part:
as §1

The target of assay [8] is T3, native FN 110 kD (B-) thermolysin …. Briefly: ELISA.
Assay [9] has as its target T4, recombinant FN domain 6. Briefly: ELISA.
Assay [10] has as its target T5, recombinant FN fragment 7B89. Briefly: BIAcore, monomeric scFv on immobilised antigen; Kd = koff/kon. On the procedure: (§2) Binding of monovalent scFv at various concentrations in the 0.1-1 μM range in PBS was measured on a BIAcore machine (Pharmacia Biosensor), using the following antigens: (i) 1000 Resonance Units (RU) of biotinylated recombinant FN fragment 7B89 immobilised on a streptavidin coated chip, which was bound specifically by 250 RU of scFv; (ii) 200 RU of recombinant ED-B, chemically immobilised at the N-terminal amino group, which was bound specifically by 600 RU of scFv; (iii) 3500 RU of ED-B-rich fibronectin WI38VA (see Example 3), which was bound specifically by 150 RU of scFv. Kinetic analysis of the data was performed according to the manufacturers' instructions. On the basis of qualitative BIAcore analysis of antibody-containing supernatants, one affinity-matured version of each scFv clone was selected: clone CGS-1 from selection with the 78B9 fragment and CGS-2 from selection with ED-B recombinant FN fragment. The association rate constants ($kon$) and dissociation rate constants ($koff$) are shown in Table 1, together with the calculated equilibrium dissociation constants (Kd) of both scFvs and the original clone 28SI. […] The improvement was due mainly to a slower kinetic dissociation constant (-10^-4 s^-1), as measured with monomeric antibody preparations (not shown).

In assay [11] the target is T6, recombinant ED-B domain of human …. The assay is described as above. As for the experimental part:
as §2

Assay [12] concerns the target T7, fibronectin purified from the …. The assay is described as above. On the procedure: as §2
The target of assay [13] is T8, mouse B-FN (mouse, UniProt P11276 33-2477, limits assumed).
T8 construct: also called mouse B+ fibronectin
Briefly: immunohistochemistry.

Assay [14] deals with T9, 85 kD thermolysin fragment of FN from WI38VA cells (human, UniProt P02751 722-1351, limits assumed).
T9 construct: domain: 85 kD fragment spanning repeats 2-7 in addition to the N-terminus of ED-B; also called 85 kD fragment; 85 kD domain
T9 sequence (P02751 722-1351 limits assumed): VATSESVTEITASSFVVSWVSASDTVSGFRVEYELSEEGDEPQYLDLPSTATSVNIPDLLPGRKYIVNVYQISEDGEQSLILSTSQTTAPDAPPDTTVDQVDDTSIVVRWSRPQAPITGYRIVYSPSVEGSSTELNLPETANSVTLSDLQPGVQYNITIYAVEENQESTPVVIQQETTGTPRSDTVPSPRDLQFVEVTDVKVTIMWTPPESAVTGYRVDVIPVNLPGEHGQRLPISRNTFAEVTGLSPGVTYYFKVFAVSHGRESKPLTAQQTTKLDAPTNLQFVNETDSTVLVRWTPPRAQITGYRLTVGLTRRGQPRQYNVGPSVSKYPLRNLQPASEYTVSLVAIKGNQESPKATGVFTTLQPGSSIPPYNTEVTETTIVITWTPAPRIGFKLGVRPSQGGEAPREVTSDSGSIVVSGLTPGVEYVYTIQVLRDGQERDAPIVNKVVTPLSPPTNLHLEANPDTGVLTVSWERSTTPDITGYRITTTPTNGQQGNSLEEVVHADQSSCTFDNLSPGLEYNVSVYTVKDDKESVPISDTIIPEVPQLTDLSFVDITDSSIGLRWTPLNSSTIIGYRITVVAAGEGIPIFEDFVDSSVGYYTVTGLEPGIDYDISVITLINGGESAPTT
Briefly: immunoblot. On the procedure: (§3) The antigens used for ELISA and immunoblotting were prepared as follows. FN was purified from human plasma and from the conditioned medium of the WI38VA13 cell line as previously reported (Zardi et al, 1987). Purified FNs were digested with thermolysin (protease type X; Sigma Chemical Co.) as reported by Carnemolla et al (1989). Native FN 110 kD (B−) and native FN 120 kD (B+) fragments (see FIG. 2) were purified from a FN digest as previously reported (Borsi et al, 1991). The large isoform of tenascin-C was purified as reported by Saginati et al (1992). Recombinant proteins were expressed and purified as described in Example 1. SDS-PAGE and Western blotting were carried out as described by Carnemolla et al (1989).
(§4) On the left hand side of FIG. 2B is a Coomassie stained gel of the protein fractions analysed by immunoblotting. Plasma FN (lane 1) and thermolysin digests of the protein (lane 3, containing the 110 kD protein, and lane 4, containing digested 110 kD protein) were not recognised by CGS-1 and CGS-2. In contrast, ED-B-rich FN from WI38VA cells, both intact (lane 2) and after increasing thermolysin digestion (lanes 5, 6 and 7) was recognised by both scFv fragments. […]
(In general: Immunoblotting shows a protein as a band on a membrane.)

For assay [15], the target named is T2, recombinant FN fragment 789. Briefly: immunoblot of recombinant FN proteins expressed in E. coli. As for the experimental part: The fine specificity of CGS-1 and CGS-2 was investigated further by immunoblotting using recombinant FN fragments and fusion proteins with or without the ED-B sequence. The FN fusion proteins were prepared as described by Carnemolla et al (1989). The results of these experiments are shown in FIG. 3; for the association of the schematic diagram to the structure of the domains of human FN, see Carnemolla et al, 1992.

Assay [16] addresses T5, recombinant FN fragment 7B89. Nature of the assay: BIAcore, monomeric scFv on immobilised antigen. On the procedure:
as §2

Assay [17] addresses T6, recombinant ED-B domain of human …. Briefly: BIAcore, monomeric scFv on immobilised antigen. As for the experimental part:
as §2

Assay [18] deals with T7, fibronectin purified from the …. Briefly: BIAcore, monomeric scFv on immobilised antigen. As for the experimental part: as §2
Background: In SPR one partner is held on a chip, and binding of the other changes the refractive index at the surface.

Assay [19] addresses T10, chicken B-FN (chicken, UniProt P11722 22-2483, limits assumed).
T10 construct: also called chicken B+ fibronectin
Briefly: immunohistochemistry.

The target in assay [20] is T3, native FN 110 kD (B-) thermolysin …. Briefly: immunoblot. On the procedure: as §3, §4

T7 sequence (P02751 32-2477): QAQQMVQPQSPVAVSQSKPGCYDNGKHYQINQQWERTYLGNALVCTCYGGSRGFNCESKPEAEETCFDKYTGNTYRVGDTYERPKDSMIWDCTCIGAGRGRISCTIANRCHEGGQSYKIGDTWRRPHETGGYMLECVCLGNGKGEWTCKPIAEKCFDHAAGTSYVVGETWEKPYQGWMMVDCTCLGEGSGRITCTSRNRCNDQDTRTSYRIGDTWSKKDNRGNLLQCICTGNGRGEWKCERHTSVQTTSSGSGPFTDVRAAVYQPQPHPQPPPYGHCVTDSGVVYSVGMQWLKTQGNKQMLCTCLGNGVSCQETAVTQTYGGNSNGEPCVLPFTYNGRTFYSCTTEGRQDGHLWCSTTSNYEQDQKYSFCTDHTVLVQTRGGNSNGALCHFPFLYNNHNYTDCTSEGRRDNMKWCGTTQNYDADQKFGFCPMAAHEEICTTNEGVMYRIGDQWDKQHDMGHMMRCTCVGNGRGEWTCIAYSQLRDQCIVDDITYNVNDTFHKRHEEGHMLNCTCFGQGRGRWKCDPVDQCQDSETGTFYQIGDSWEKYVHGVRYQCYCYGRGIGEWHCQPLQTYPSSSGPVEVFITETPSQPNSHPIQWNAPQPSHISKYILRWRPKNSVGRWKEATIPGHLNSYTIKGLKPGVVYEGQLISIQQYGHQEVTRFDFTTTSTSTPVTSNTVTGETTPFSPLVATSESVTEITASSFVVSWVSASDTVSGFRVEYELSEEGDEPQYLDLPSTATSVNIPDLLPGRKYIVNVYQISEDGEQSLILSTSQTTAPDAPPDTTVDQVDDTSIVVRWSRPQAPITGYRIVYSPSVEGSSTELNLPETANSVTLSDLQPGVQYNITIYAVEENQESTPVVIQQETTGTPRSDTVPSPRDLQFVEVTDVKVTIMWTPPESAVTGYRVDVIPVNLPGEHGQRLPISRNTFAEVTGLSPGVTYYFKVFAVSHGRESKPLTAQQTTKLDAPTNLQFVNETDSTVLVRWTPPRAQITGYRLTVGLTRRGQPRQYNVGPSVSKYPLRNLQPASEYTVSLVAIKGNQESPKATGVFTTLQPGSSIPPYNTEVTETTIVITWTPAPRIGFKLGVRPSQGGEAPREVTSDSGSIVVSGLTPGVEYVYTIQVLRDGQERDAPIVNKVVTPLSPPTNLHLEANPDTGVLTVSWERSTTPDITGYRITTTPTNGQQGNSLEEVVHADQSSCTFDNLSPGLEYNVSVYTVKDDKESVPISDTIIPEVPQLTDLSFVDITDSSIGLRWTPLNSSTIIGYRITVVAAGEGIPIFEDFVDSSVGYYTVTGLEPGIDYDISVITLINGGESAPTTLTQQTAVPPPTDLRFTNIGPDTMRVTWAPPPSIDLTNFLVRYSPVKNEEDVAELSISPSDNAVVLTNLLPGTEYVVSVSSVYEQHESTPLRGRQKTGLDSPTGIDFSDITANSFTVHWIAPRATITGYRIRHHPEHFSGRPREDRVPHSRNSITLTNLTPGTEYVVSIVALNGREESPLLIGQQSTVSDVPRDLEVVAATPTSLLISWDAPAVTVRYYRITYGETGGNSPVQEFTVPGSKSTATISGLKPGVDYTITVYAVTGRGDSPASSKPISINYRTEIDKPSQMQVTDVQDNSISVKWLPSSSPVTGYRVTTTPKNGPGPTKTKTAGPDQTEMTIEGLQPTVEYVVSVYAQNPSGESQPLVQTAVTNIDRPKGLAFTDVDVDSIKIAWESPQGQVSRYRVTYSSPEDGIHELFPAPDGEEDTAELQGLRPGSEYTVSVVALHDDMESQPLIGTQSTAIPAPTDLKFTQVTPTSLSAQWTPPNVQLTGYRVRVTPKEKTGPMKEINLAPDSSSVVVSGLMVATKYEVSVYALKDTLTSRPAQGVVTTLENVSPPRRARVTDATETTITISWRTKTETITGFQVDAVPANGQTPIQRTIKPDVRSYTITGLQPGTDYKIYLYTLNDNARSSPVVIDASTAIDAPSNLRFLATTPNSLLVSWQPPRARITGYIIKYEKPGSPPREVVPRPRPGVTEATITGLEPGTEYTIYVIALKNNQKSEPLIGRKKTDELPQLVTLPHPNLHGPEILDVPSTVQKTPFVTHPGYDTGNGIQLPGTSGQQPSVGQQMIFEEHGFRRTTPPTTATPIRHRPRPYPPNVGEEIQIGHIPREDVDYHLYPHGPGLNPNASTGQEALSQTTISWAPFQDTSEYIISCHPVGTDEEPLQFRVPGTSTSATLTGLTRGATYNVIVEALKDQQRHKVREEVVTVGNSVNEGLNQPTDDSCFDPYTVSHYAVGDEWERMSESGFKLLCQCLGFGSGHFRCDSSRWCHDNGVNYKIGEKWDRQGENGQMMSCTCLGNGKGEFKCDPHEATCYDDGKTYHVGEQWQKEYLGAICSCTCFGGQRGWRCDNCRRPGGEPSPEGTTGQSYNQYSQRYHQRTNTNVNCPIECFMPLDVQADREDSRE
T6 sequence (P02751 other isoform, or with tags, fused parts or gaps limits assumed): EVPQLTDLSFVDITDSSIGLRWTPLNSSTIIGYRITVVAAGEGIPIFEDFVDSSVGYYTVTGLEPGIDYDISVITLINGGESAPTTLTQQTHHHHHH
T5 sequence (P02751 other isoform, or with tags, fused parts or gaps limits assumed): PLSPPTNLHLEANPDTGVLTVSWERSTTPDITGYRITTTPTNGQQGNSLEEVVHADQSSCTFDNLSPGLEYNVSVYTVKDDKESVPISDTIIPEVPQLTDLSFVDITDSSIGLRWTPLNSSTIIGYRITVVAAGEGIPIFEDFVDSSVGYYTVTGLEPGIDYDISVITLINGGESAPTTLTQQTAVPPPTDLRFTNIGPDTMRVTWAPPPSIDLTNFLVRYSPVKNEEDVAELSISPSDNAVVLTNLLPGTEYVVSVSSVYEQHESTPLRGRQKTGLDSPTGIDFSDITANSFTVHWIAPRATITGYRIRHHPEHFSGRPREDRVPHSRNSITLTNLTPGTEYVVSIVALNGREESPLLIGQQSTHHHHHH

B1: scFv CGS-1 (scFv, V domains shown)
VH: QVQLVESGGGLVQPGGSLRLSCAVSGFTFSSYAMSWVRQAPGKGLEWVSAISGSGGSTYYADSVKGRFTISRDNSKNTLYLQMNSLRAEDTAVYYCARSLPKWGQGTLVTVSR
VL: SSELTQDPAVSVALGQTVRITCQGDSLRSYYASWYQQKPGQAPVLVTYGKNNRPSGIPDRFSGSSSGNTASLTITGAQAEDEADYYCNSSPVVLNGVVFGGGTKLTVL
notes: claims 6 and 8 say that 8 is a VH and 10 a VL; VH-linker-VL order follows from the cloning primers; Monomeric, FPLC-purified, in BIAcore; in the ELISA detected through a FLAG or myc tag
Consider B1, for which the “OD at 405 nm” value came out at 0.82 OD 405 nm in assay [1]; 0.01 OD 405 nm in assay [2]; 0.03 OD 405 nm in assay [3]; 0.01 OD 405 nm in assay [4]; 1.11 OD 405 nm in assay [5]; 1.21 OD 405 nm in [6]. Besides, in assay [7], the “OD at 405 nm” value was 1.16 OD 405 nm. Moreover, the binding result in assay [8] is recorded as “no binding”; in assay [9], “no binding”; in [13], “binds”; in [14] it was “no binding”; in assay [15], “no binding”. Further, the Kd (usually the free concentration of one partner at which half of the binding sites on the other are occupied at equilibrium, for simple one-to-one binding) is 35 nM in [10], 54 nM in assay [11] and 12 nM in assay [12]. Further, the results for the dissociation rate constant (koff) in assay [16], in [17] and in [18] were 0.0039 s⁻¹, 0.007 s⁻¹ and 0.005 s⁻¹, respectively. In addition, the values for the association rate constant (kon) in assay [16], in assay [17] and in assay [18] were 110000 M⁻¹ s⁻¹, 130000 M⁻¹ s⁻¹ and 410000 M⁻¹ s⁻¹, respectively.

B2: scFv CGS-2 (scFv, V domains shown)
VH: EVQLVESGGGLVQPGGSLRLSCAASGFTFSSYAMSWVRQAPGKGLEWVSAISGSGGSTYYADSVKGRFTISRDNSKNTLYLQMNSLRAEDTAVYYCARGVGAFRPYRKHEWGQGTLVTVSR
VL: SSELTQDPAVSVALGQTVRITCQGDSLRSYYASWYQQKPGQAPVLVIYGKNNRPSGIPDRFSGSSSGNTASLTTTGAQAEDEADYYCNSSPFEHNLVVFGGGTKLTVL
notes: claims 7 and 9 say that 9 is a VH and 11 a VL; Monomeric, FPLC-purified, in BIAcore
For the molecule B2, the “OD at 405 nm” value in [1] is 0.81 OD 405 nm; in [2], 0.01 OD 405 nm; in assay [3] it was 0.01 OD 405 nm; in assay [4], 0.01 OD 405 nm; in [5], 1.02 OD 405 nm; in assay [6], 1.32 OD 405 nm. Also, the “OD at 405 nm” value in assay [7] was determined as 0.72 OD 405 nm. Moreover, the binding result is on record as “no binding” in [9]; “binds” in [19]; “binds” in assay [13]; “no binding” in assay [20]; “no binding” in [15]. Further, the figures for the Kd in [10], in assay [11] and in assay [12] were 2.1 nM, 1.1 nM and 2.4 nM, respectively. Moreover, the dissociation rate constant (koff) (commonly the rate constant with which the complex falls apart) in assay [16] is 0.00023 s⁻¹; in assay [17], 0.00015 s⁻¹; in assay [18], 0.00065 s⁻¹. The on-rate (kon) – broadly, a measure of how fast the partners come together – in [16] was found to be 110000 M⁻¹ s⁻¹; in assay [17] it was 130000 M⁻¹ s⁻¹; in assay [18], 290000 M⁻¹ s⁻¹.

The values above are taken from US8703143 (PHILOGEN S P A, dated 2014).
